Bridges are numbered along the chain shown (N, C = ends). Where no end group is shown, it is not given here. L1 = not defined here; L3 = not defined here; L4 = not defined here; L5 = not defined here
T1: GPR10 (UniProt P49683 1-370, limits assumed)
T1 sequence (looked up): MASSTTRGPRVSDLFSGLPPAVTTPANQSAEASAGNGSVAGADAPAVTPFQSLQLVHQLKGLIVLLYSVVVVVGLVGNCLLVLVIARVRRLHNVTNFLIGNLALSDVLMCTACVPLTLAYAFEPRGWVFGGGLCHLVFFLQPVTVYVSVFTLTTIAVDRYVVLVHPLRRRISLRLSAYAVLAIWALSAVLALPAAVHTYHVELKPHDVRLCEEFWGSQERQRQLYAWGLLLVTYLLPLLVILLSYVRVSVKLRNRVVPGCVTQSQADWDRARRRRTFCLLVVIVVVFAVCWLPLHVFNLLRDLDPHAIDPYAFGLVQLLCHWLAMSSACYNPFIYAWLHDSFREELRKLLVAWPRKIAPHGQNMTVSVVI


target: T1, GPR10; test: cell-based or functional assay

First: TPDINPCWYTGRGCRPVGRF-NH2 (cysteine pairing not given here) [SEQ ID NO 85]
Second: TCDINPAWCTGRGIRPVGRF-NH2 (linker 2-9 via L4; reading uncertain) [Conjugate 214]
The “GPR10 EC50” value of the first is 7-fold lower: 33 nM for the first, 230 nM for the second.

First: TPDINPCWYTGRGCRPVGRF-NH2 (linker 7-14 via L4; reading uncertain) [Conjugate 223]
Second: SRAHQHSMETRTCDINPAWCTGRGIRPVGRF-NH2 (cysteine pairing not given here) [SEQ ID NO 92]
The “GPR10 EC50” value of the first is higher: over 1000 nM for the first, 18 nM for the second.

First: TPDINPAWYCGRGIRPCGRF-NH2 (linker 10-17 via L1; reading uncertain) [Conjugate 212]
Second: SRAHQHSMETRTCDINPAWCTGRGIRPVGRF-NH2 (linker 13-20 via L4; reading uncertain) [Conjugate 240]
The “GPR10 EC50” value of the first is higher: over 10000 nM for the first, 630 nM for the second.

First: CRAHQHSCETRTPDINPAWYTGRGIRPVGRF-NH2 (linker 1-8 via L4; reading uncertain) [Conjugate 234]
Second: TPDCNPAWYTCRGIRPVGRF-NH2 (linker 4-11 via L4; reading uncertain) [Conjugate 217]
The “GPR10 EC50” value of the first is 3-fold higher: 230 nM for the first, 77 nM for the second.

Compared with TPDCNPAWYTCRGIRPVGRF-NH2 (cysteine pairing not given here) [SEQ ID NO 105], TPDINPCWYTGRGCRPVGRF-NH2 (linker 7-14 via L5; reading uncertain) [Conjugate 224] is higher in “GPR10 EC50” value: 10 nM for the first, over 1000 nM for the second.

Going from TPDINPACYTGRGICPVGRF-NH2 (cysteine pairing not given here) [SEQ ID NO 86] to TCDINPAWCTGRGIRPVGRF-NH2 (cysteine pairing not given here) [SEQ ID NO 103], the “GPR10 EC50” value falls from 6800 nM to 33 nM (210-fold).

Compared with TPDICPAWYTGCGIRPVGRF-NH2 (linker 5-12 via L3; reading uncertain) [Conjugate 219], SRAHQHSMETRTCDINPAWCTGRGIRPVGRF-NH2 (linker 13-20 via L1; reading uncertain) [Conjugate 228] is 1.6-fold higher in “GPR10 EC50” value: 25 nM for the first, 40 nM for the second.

First: TPCINPAWYCGRGIRPVGRF-NH2 (cysteine pairing not given here) [SEQ ID NO 104]
Second: TPDINPCWYTGRGCRPVGRF-NH2 (linker 7-14 via L3; reading uncertain) [Conjugate 222]
The “GPR10 EC50” value of the first is 3.1-fold higher: 16 nM for the first, 5.2 nM for the second.

First: TPDCNPAWYTCRGIRPVGRF-NH2 (linker 4-11 via L1; reading uncertain) [Conjugate 206]
Second: TCDINPAWCTGRGIRPVGRF-NH2 (linker 2-9 via L1; reading uncertain) [Conjugate 204]
The “GPR10 EC50” value of the first is 1.6-fold lower: 7.3 nM for the first, 12 nM for the second.

Compared with TPDICPAWYTGCGIRPVGRF-NH2 (cysteine pairing not given here) [SEQ ID NO 83], TPDCNPAWYTCRGIRPVGRF-NH2 (linker 4-11 via L3; reading uncertain) [Conjugate 216] is 11-fold lower in “GPR10 EC50” value: 44 nM for the first, 3.9 nM for the second.

Going from TPDINPAWYTGRGIRPVGRF-NH2 [SEQ ID NO 106] to TPDICPAWYTGCGIRPVGRF-NH2 (linker 5-12 via L5; reading uncertain) [Conjugate 221], the “GPR10 EC50” value rises from 13 nM to 840 nM (65-fold).

First: CRAHQHSCETRTPDINPAWYTGRGIRPVGRF-NH2 (linker 1-8 via L5; reading uncertain) [Conjugate 235]
Second: CRAHQHSCETRTPDINPAWYTGRGIRPVGRF-NH2 (linker 1-8 via L1; reading uncertain) [Conjugate 225]
The “GPR10 EC50” value of the first is 14-fold higher: 330 nM for the first, 24 nM for the second.

Going from TPDINPAWCTGRGIRCVGRF-NH2 (cysteine pairing not given here) [SEQ ID NO 87] to TPDICPAWYTGCGIRPVGRF-NH2 (linker 5-12 via L4; reading uncertain) [Conjugate 220], the “GPR10 EC50” value rises from 120 nM to 610 nM (5.1-fold).

First: SRAHQHSMCTRTPDICPAWYTGRGIRPVGRF-NH2 (cysteine pairing not given here) [SEQ ID NO 91]
Second: TPDINPAWYCGRGIRPCGRF-NH2 (cysteine pairing not given here) [SEQ ID NO 88]
The “GPR10 EC50” value of the first is 39-fold lower: 41 nM for the first, 1600 nM for the second.

First: SRAHQHSMCTRTPDICPAWYTGRGIRPVGRF-NH2 (linker 9-16 via L1; reading uncertain) [Conjugate 227]
Second: TPDINCAWYTGRCIRPVGRF-NH2 (linker 6-13 via L1; reading uncertain) [Conjugate 208]
The “GPR10 EC50” value of the first is 5.7-fold higher: 85 nM for the first, 15 nM for the second.

TPDINCAWYTGRCIRPVGRF-NH2 (cysteine pairing not given here) [SEQ ID NO 84] and SRAHQHSMETRTCDINPAWCTGRGIRPVGRF-NH2 (linker 13-20 via L3; reading uncertain) [Conjugate 239] are within 1.5-fold of each other in “GPR10 EC50” value: 18 nM for the first, 17 nM for the second.

TPDINPCWYTGRGCRPVGRF-NH2 (linker 7-14 via L1; reading uncertain) [Conjugate 209] and TPDICPAWYTGCGIRPVGRF-NH2 (linker 5-12 via L1; reading uncertain) [Conjugate 207] are within 1.5-fold of each other in “GPR10 EC50” value: 10 nM for the first, 13 nM for the second.

Compared with TPDINPACYTGRGICPVGRF-NH2 (linker 8-15 via L1; reading uncertain) [Conjugate 210], TPCINPAWYCGRGIRPVGRF-NH2 (linker 3-10 via L1; reading uncertain) [Conjugate 205] is 34-fold lower in “GPR10 EC50” value: 720 nM for the first, 21 nM for the second.

First: TPDINPAWCTGRGIRCVGRF-NH2 (linker 9-16 via L1; reading uncertain) [Conjugate 211]
Second: TCDINPAWCTGRGIRPVGRF-NH2 (linker 2-9 via L5; reading uncertain) [Conjugate 215]
The “GPR10 EC50” value of the first is 3.9-fold lower: 160 nM for the first, 620 nM for the second.

Compared with CRAHQHSCETRTPDINPAWYTGRGIRPVGRF-NH2 (cysteine pairing not given here) [SEQ ID NO 89], TCDINPAWCTGRGIRPVGRF-NH2 (linker 2-9 via L3; reading uncertain) [Conjugate 213] is 2.1-fold higher in “GPR10 EC50” value: 16 nM for the first, 33 nM for the second.

First: SRAHQHSMETRTCDINPAWCTGRGIRPVGRF-NH2 (linker 13-20 via L5; reading uncertain) [Conjugate 241]
Second: CRAHQHSCETRTPDINPAWYTGRGIRPVGRF-NH2 (linker 1-8 via L3; reading uncertain) [Conjugate 233]
The “GPR10 EC50” value of the first is 88-fold higher: 1500 nM for the first, 17 nM for the second.

In the case of TPDCNPAWYTCRGIRPVGRF-NH2 (linker 4-11 via L5; reading uncertain) [Conjugate 218], the “GPR10 EC50” value is reported as 81 nM.

Reference: US20230071371A1 (Scripps Research, published 2023)
